B1: His6-Ydj1 (natural protein, S. cerevisiae, UniProt P25491 1-409, looked up)
chain: MVKETKFYDILGVPVTATDVEIKKAYRKCALKYHPDKNPSEEAAEKFKEASAAYEILSDPEKRDIYDQFGEDGLSGAGGAGGFPGGGFGFGDDIFSQFFGAGGAQRPRGPQRGKDIKHEISASLEELYKGRTAKLALNKQILCKECEGRGGKKGAVKKCTSCNGQGIKFVTRQMGPMIQRFQTECDVCHGTGDIIDPKDRCKSCNGKKVENERKILEVHVEPGMKDGQRIVFKGEADQAPDVIPGDVVFIVSERPHKSFKRDGDDLVYEAEIDLLTAIAGGEFALEHVSGDWLKVGIVPGEVIAPGMRKVIEGKGMPIPKYGGYGNLIIKFTIKFPENHFTSEENLKKLEEILPPRIVPAIPKKATVDECVLADFDPAKYNRTRASRGGANYDSDEEEQGGEGVQCASQ
notes: Ydj1, Hsp40 co-chaperone of S. cerevisiae; His6 is named and used for capture in the pull-down; also called Hsp40
B2: Ssa1 (wt), purified (natural protein)
chain: not shown
notes: Ssa1, cytosolic Hsp70 of S. cerevisiae; the methods say that the tag was removed; also called wt-Ssa1; wt Ssa1; not shown: His6, N-terminal, cleaved
B3: Ssa1-D158N, purified (natural protein)
chain: not shown
notes: Ssa1, cytosolic Hsp70 of S. cerevisiae, with D158N; the methods say that the tag was removed; not shown: His6, N-terminal, cleaved
B4: Ssa1-T175N, purified (natural protein)
chain: not shown
notes: Ssa1, cytosolic Hsp70 of S. cerevisiae, with T175N; the methods say that the tag was removed; not shown: His6, N-terminal, cleaved

Experiments:
Ssa1 (wt), purified = biological target: B2; test: BLI; Ssa1, Ssa2, Ssa3 and Ssa4 with Ydj1; set-up not told here (as in ref. 26)
Ssa1 (wt), purified, sequence (P10591 whole entry): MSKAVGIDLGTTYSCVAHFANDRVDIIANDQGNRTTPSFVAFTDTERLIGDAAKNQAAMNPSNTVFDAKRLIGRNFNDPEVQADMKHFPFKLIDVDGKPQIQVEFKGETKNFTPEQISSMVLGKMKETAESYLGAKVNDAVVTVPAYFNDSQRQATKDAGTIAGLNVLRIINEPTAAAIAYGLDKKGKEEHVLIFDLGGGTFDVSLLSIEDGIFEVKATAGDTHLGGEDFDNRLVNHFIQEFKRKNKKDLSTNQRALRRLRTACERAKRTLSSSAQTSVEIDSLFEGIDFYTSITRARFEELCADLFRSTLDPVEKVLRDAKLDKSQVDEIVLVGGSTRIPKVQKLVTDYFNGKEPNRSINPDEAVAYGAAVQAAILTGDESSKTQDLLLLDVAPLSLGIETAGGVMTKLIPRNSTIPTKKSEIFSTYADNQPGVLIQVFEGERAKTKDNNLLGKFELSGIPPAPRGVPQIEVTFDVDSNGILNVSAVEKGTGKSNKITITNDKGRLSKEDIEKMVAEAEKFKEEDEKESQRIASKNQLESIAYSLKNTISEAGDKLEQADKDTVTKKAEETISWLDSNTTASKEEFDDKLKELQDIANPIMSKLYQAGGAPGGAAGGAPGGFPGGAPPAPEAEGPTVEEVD

Ssa1-D158N, purified = biological target: B3; test: BLI; Ydj1 (0.75 uM) immobilised on the biosensor, Ssa Hsp70 at varying concentrations as analyte, with 5 mM ATP; settings: both partners purified
Ssa1-D158N, purified, sequence (P10591 whole entry D158N): as the sequence (P10591 whole entry) above, with D158N counted along it

Ssa1-T175N, purified = biological target: B4; test: as above; settings: both partners purified
Ssa1-T175N, purified, sequence (P10591 whole entry T175N): as the sequence (P10591 whole entry) above, with T175N counted along it

Hsp82, purified [1] = biological target: T1, Hsp82, purified (S. cerevisiae, UniProt P02829 1-709); test: BLI; Octet K2, 30°C; Hsp82 immobilised on AR2G biosensors by amine coupling; Hsp70 1.0 uM as analyte in 25 mM Hepes pH 7.4, 150 mM NaCl, 20 mM MgCl2, 20 mM KCl, 0.1% Tween-20, 0.05% Triton X-100, 1 mM ATP; association and dissociation 200 s each; settings: both partners purified
T1 construct: Hsp82, Hsp90 isoform of S. cerevisiae; also called Hsp90; Hsp82 isoform of Hsp90; source: plasmid pET29bHTV-HSP82
T1 sequence (P02829 whole entry, canonical isoform): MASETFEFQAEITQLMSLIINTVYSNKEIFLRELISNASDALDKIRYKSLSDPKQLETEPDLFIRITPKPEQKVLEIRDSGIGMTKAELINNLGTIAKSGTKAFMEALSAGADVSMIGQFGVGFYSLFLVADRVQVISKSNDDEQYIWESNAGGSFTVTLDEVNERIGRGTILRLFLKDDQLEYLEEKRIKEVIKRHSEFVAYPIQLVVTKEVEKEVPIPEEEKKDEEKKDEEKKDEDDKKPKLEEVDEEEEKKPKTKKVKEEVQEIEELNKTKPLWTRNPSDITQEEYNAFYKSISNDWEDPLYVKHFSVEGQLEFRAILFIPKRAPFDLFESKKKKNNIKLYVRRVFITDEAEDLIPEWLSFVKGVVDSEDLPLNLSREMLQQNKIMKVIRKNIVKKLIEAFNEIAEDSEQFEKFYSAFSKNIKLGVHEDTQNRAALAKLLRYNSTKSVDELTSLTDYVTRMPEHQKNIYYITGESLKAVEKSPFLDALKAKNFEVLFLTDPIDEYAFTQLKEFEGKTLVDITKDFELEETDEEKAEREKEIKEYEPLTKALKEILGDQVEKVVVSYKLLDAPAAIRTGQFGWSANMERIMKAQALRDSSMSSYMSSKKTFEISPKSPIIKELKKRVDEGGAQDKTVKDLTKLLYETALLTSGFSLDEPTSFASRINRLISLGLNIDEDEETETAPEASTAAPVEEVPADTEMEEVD

Hsp82, purified [2] = biological target: T1, Hsp82, purified; test: cell-based or functional assay
His6-Ydj1 = biological target: B1; test: cell-based or functional assay

| Binder | binding result (Ssa1 (wt), purified) | binding result (Ssa1-D158N, purified) | binding result (Ssa1-T175N, purified) | binding result (Hsp82, purified [1]) | fold increase in luciferase refolding upon addition of Hsp90 (Hsp82) and Sti1 to a reaction with Ydj1 and Hsp70 (wt Ssa1: 4) (Hsp82, purified [2]) [fold] | refolding of heat-denatured luciferase by Hsp70 with Ydj1, fold, time course to 30 min (wt Ssa1:Ydj1: 30-fold) (His6-Ydj1) [fold] | fold by which the BLI response of wt-Ssa1 at equilibrium is higher than that of this mutant (Hsp82, purified [1]) [fold] |
| --- | --- | --- | --- | --- | --- | --- | --- |
| B1 | binds | binds | binds | – | – | – | – |
| B2 | – | – | – | binds | – | – | – |
| B3 | – | – | – | – | 2 | ~60 | ~2 |
| B4 | – | – | – | – | 2 | ~60 | ~4 |

Reference: article PMC9645627, “Ydj1 interaction at nucleotide-binding-domain of yeast Ssa1 impacts Hsp90 collaboration and client maturation” (PLOS Genetics, 2022)
